Data: publication PMC3897375, “Def1 Promotes the Degradation of Pol3 for Polymerase Exchange to Occur During DNA-Damage–Induced Mutagenesis in Saccharomyces cerevisiae” (PLoS Biology, 2014)

Key:
[1] = target: T1, Pol31 (S. cerevisiae, UniProt P46957 1-487); assay: pull-down; GST–Pol32 (3 µg) or GST immobilised on glutathione–Sepharose beads, incubated with purified Pol31 (5 µg) and Rev1 (3 µg) together, overnight on ice; 50 mM Tris/HCl pH 7.5, 150 mM NaCl, 1 mM EDTA, 1 mM DTT, 10% glycerol, 0.01% Nonidet P-40; five washes, elution with 20 mM glutathione, SDS-PAGE; conditions: both partners purified
T1 construct: Pol31, noncatalytic subunit of DNA polymerase delta, S. cerevisiae; also called purified Pol31; source: S. cerevisiae BJ5464, overexpressed, purified on glutathione–Sepharose 4B beads, eluted by PreScission protease cleavage; not shown: GST, N-terminal, cleaved
T1 sequence (looked up): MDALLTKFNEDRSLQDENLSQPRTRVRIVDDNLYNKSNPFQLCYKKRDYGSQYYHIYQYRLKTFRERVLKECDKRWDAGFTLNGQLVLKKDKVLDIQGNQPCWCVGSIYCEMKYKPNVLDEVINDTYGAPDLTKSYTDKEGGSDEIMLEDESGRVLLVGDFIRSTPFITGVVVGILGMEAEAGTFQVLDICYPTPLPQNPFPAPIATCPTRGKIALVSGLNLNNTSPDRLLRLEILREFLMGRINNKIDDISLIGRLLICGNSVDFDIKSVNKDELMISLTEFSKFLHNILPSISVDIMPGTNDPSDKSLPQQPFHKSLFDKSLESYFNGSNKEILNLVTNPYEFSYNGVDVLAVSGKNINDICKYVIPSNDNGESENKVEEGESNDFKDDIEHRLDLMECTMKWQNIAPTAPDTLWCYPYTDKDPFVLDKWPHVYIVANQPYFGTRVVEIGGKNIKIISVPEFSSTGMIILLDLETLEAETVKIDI

[2] = target: T2, Rev1 (S. cerevisiae, UniProt P12689 1-985); assay: as above; conditions: both partners purified
T2 construct: Rev1, translesion synthesis DNA polymerase, S. cerevisiae; also called TLS polymerase Rev1; purified Rev1; source: S. cerevisiae BJ5464, overexpressed, purified on glutathione–Sepharose 4B beads, eluted by PreScission protease cleavage; not shown: GST, N-terminal, cleaved
T2 sequence (looked up): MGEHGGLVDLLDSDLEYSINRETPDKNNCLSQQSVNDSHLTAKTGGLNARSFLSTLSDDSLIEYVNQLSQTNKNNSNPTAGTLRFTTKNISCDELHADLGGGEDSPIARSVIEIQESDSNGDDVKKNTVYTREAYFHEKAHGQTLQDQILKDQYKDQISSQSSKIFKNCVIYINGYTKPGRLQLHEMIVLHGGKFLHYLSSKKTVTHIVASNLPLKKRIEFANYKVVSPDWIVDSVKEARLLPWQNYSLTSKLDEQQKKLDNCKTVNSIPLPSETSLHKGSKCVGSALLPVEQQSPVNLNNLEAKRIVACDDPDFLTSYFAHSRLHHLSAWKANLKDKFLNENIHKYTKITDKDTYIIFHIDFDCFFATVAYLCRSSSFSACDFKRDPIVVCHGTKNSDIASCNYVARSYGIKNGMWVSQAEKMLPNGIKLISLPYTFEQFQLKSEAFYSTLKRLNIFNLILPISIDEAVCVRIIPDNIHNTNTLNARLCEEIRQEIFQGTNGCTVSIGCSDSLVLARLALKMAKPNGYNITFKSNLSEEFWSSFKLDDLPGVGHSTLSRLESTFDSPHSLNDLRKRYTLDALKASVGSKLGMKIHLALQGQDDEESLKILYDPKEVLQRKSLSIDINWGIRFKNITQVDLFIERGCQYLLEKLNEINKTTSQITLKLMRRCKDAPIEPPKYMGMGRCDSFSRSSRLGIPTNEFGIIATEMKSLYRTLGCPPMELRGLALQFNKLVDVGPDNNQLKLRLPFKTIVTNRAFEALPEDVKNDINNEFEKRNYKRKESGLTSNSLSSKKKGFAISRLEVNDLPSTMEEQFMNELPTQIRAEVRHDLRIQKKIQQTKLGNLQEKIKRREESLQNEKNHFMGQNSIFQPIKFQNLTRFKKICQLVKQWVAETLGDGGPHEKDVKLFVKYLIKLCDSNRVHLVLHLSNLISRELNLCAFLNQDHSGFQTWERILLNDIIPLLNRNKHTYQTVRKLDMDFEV

binding result [1]: binds
binding result [2]: binds
B1: GST–Pol32 (natural protein, S. cerevisiae, UniProt P47110 1-350, looked up)
chain: MDQKASYFINEKLFTEVKPVLFTDLIHHLKIGPSMAKKLMFDYYKQTTNAKYNCVVICCYKDQTIKIIHDLSNIPQQDSIIDCFIYAFNPMDSFIPYYDIIDQKDCLTIKNSYELKVSESSKIIERTKTLEEKSKPLVRPTARSKTTPEETTGRKSKSKDMGLRSTALLAKMKKDRDDKETSRQNELRKRKEENLQKINKQNPEREAQMKELNNLFVEDDLDTEEVNGGSKPNSPKETDSNDKDKNNDDLEDLLETTAEDSLMDVPKIQQTKPSETEHSKEPKSEEEPSSFIDEDGYIVTKRPATSTPPRKPSPVVKRALSSSKKQETPSSNKRLKKQGTLESFFKRKAK
notes: Pol32, noncatalytic subunit of DNA polymerase delta, S. cerevisiae; source: S. cerevisiae BJ5464, overexpressed, purified on glutathione–Sepharose 4B beads; not shown: GST, N-terminal, kept
